Test results from the supplement of paper PMC11246515.
± gives the standard deviation of the averaged measurements.

Experiment: total protein half-life in vivo (active degradation + dilution); higher = more stable protein
[1] = E. coli NCM3722 delta-clpP delta-lon delta-hslV, growth: N-lim chemostat, doubling time 6 h
[2] = E. coli NCM3722 delta-clpP, growth: N-lim chemostat, doubling time 6 h
[3] = E. coli NCM3722 delta-hslV, growth: N-lim chemostat, doubling time 6 h
[4] = E. coli NCM3722 delta-lon, growth: N-lim chemostat, doubling time 6 h
[5] = E. coli NCM3722 delta-smpB, growth: N-lim chemostat, doubling time 6 h
[6] = wild type E. coli NCM3722, growth: C-lim chemostat, doubling time 3 h
[7] = wild type E. coli NCM3722, growth: C-lim chemostat, doubling time 6 h
[8] = wild type E. coli NCM3722, growth: C-lim chemostat, doubling time 12 h
[9] = wild type E. coli NCM3722, growth: N-lim chemostat, doubling time 6 h
[10] = wild type E. coli NCM3722, growth: N-lim chemostat, doubling time 12 h
[11] = wild type E. coli NCM3722, growth: P-lim chemostat, doubling time 6 h
[12] = wild type E. coli NCM3722, growth: P-lim chemostat, doubling time 12 h

Sequence | total protein half-life in vivo [1] | total protein half-life in vivo [2] | total protein half-life in vivo [3] | total protein half-life in vivo [4] | total protein half-life in vivo [5] | total protein half-life in vivo [6] | total protein half-life in vivo [7] | total protein half-life in vivo [8] | total protein half-life in vivo [9] | total protein half-life in vivo [10] | total protein half-life in vivo [11] | total protein half-life in vivo [12]
MHKFTKALAAIGLAAVMSQSAMAENLKLGFLVKQPEEPWFQTEWKFADKAGKDLGFEVIKIAVPDGEKTLNAIDSLAASGAKGFVICTPDPKLGSAIVAKARGYDMKVIAVDDQFVNAKGKPMDTVPLVMMAATKIGERQGQELYKEMQKRGWDVKESAVMAITANELDTARRRTTGSMDALKAAGFPEKQIYQVPTKSNDIPGAFDAANSMLVQHPEVKHWLIVGMNDSTVLGGVRATEGQGFKAADIIGIGINGVDAVSELSKAQATGFYGSLLPSPDVHGYKSSEMLYNWVAKDVEPPKFTEVTDVVLITRDNFKEELEKKGLGGK | 5.11 ± 0.82 h | 5.55 ± 0.61 h | 6.44 ± 0.68 h | 6.58 ± 0.93 h | 6.54 ± 1.9 h | 3.11 ± 0.2 h | 6.07 ± 0.47 h | 12.2 ± 2.1 h | 5.99 ± 0.45 h | 12.3 ± 3.3 h | 5.91 ± 0.24 h | 13.1 ± 0.49 h
MIKLSNITKVFHQGTRTIQALNNVSLHVPAGQIYGVIGASGAGKSTLIRCVNLLERPTEGSVLVDGQELTTLSESELTKARRQIGMIFQHFNLLSSRTVFGNVALPLELDNTPKDEVKRRVTELLSLVGLGDKHDSYPSNLSGGQKQRVAIARALASNPKVLLCDEATSALDPATTRSILELLKDINRRLGLTILLITHEMDVVKRICDCVAVISNGELIEQDTVSEVFSHPKTPLAQKFIQSTLHLDIPEDYQERLQAEPFTDCVPMLRLEFTGQSVDAPLLSETARRFNVNNNIISAQMDYAGGVKFGIMLTEMHGTQQDTQAAIAWLQEHHVKVEVLGYV | 6.5123 ± 0.0016 h | 6.41 ± 0.39 h | 6.04 ± 0.08 h | 6.66 ± 0.25 h | 5.61 ± 0.26 h | – | 5.76 ± 0.38 h | 9.681 ± 0.078 h | 5.85 ± 0.51 h | 12.67 ± 0.12 h | 6.3 ± 0.86 h | 12.1 ± 0.42 h
MEKNNEVIQTHPLVGWDISTVDSYDALMLRLHYQTPNKSEQEGTEVGQTLWLTTDVARQFISILEAGIAKIESGDFQVNEYRRH [P0AB33] | 4.09 h | – | – | – | – | – | – | – | – | – | – | –
MQTIIRVEKLAKTFNQHQALHAVDLNIHHGEMVALLGPSGSGKSTLLRHLSGLITGDKSVGSHIELLGRTVQREGRLARDIRKSRAHTGYIFQQFNLVNRLSVLENVLIGALGSTPFWRTCFSWFTGEQKQRALQALTRVGMVHFAHQRVSTLSGGQQQRVAIARALMQQAKVILADEPIASLDPESARIVMDTLRDINQNDGITVVVTLHQVDYALRYCERIVALRQGHVFYDGSSQQFDNERFDHLYRSINRVEENAKAA | – | – | – | – | – | – | – | – | – | – | 0.231 ± 0.32 h | 0.931 ± 0.95 h
MFLAQEIIRKKRDGHALSDEEIRFFINGIRDNTISEGQIAALAMTIFFHDMTMPERVSLTMAMRDSGTVLDWKSLHLNGPIVDKHSTGGVGDVTSLMLGPMVAACGGYIPMISGRGLGHTGGTLDKLESIPGFDIFPDDNRFREIIKDVGVAIIGQTSSLAPADKRFYATRDITATVDSIPLITASILAKKLAEGLDALVMDVKVGSGAFMPTYELSEALAEAIVGVANGAGVRTTALLTDMNQVLASSAGNAVEVREAVQFLTGEYRNPRLFDVTMALCVEMLISGKLAKDDAEARAKLQAVLDNGKAAEVFGRMVAAQKGPTDFVENYAKYLPTAMLTKAVYADTEGFVSEMDTRALGMAVVAMGGGRRQASDTIDYSVGFTDMARLGDQVDGQRPLAVIHAKDENNWQEAAKAVKAAIKLADKAPESTPTVYRRISE | 5.35 ± 0.43 h | 5.92 ± 0.45 h | 5.18 ± 0.25 h | 5.58 ± 0.26 h | 5.29 ± 0.068 h | 3.127 ± 0.0038 h | 5.78 ± 0.25 h | – | 5.36 ± 0.13 h | 10.4 ± 1.3 h | 6.07 ± 0.16 h | 13.1 ± 1.6 h
MENQPKLNSSKEVIAFLAERFPHCFSAEGEARPLKIGIFQDLVDRVAGEMNLSKTQLRSALRLYTSSWRYLYGVKPGATRVDLDGNPCGELDEQHVEHARKQLEEAKARVQAQRAEQQAKKREAAATAGEKEDAPRRERKPRPTTPRRKEGAERKPRAQKPVEKAPKTVKAPREEQHTPVSDISALTVGQALKVKAGQNAMDATVLEITKDGVRVQLNSGMSLIVRAEHLVF | 6.28 ± 0.52 h | 4.08 ± 0.88 h | 3.47 ± 0.071 h | – | 3.13 ± 0.045 h | 2.73 ± 0.21 h | 4.51 ± 0.22 h | 6.83 ± 0.53 h | 3.07 ± 0.052 h | 4.76 ± 0.052 h | 2.974 ± 0.024 h | 4.71 ± 0.23 h
MSNVIASLEKVLLPFAVKIGKQPHVNAIKNGFIRLMPLTLAGAMFVLINNVFLSFGEGSFFYSLGIRLDASTIETLNGLKGIGGNVYNGTLGIMSLMAPFFIGMALAEERKVDALAAGLLSVAAFMTVTPYSVGEAYAVGANWLGGANIISGIIIGLVVAEMFTFIVRRNWVIKLPDSVPASVSRSFSALIPGFIILSVMGIIAWALNTWGTNFHQIIMDTISTPLASLGSVVGWAYVIFVPLLWFFGIHGALALTALDNGIMTPWALENIATYQQYGSVEAALAAGKTFHIWAKPMLDSFIFLGGSGATLGLILAIFIASRRADYRQVAKLALPSGIFQINEPILFGLPIIMNPVMFIPFVLVQPILAAITLAAYYMGIIPPVTNIAPWTMPTGLGAFFNTNGSVAALLVALFNLGIATLIYLPFVVVANKAQNAIDKEESEEDIANALKF | – | – | 7.11 h | – | 6.04 ± 0.73 h | – | 6.68 ± 0.31 h | 9.58 ± 2.1 h | 6.51 h | – | – | 13.3 h
MNKILLVDDDRELTSLLKELLEMEGFNVIVAHDGEQALDLLDDSIDLLLLDVMMPKKNGIDTLKALRQTHQTPVIMLTARGSELDRVLGLELGADDYLPKPFNDRELVARIRAILRRSHWSEQQQNNDNGSPTLEVDALVLNPGRQEASFDGQTLELTGTEFTLLYLLAQHLGQVVSREHLSQEVLGKRLTPFDRAIDMHISNLRRKLPDRKDGHPWFKTLRGRGYLMVSAS [P0AE88] | 5.73 ± 0.89 h | 4.96 ± 0.36 h | 4.848 ± 0.016 h | – | 5.11 ± 0.091 h | 3.28 ± 0.5 h | 5.44 ± 0.21 h | 11.4 ± 0.69 h | 6 ± 1.4 h | 8.76 ± 0.57 h | 6.01 ± 0.11 h | 10.9 ± 0.17 h
MDWLLDVFATWLYGLKVIAITLAVIMFISGLDDFFIDVVYWVRRIKRKLSVYRRYPRMSYRELYKPDEKPLAIMVPAWNETGVIGNMAELAATTLDYENYHIFVGTYPNDPDTQRDVDEVCARFPNVHKVVCARPGPTSKADCLNNVLDAITQFERSANFAFAGFILHDAEDVISPMELRLFNYLVERKDLIQIPVYPFEREWTHFTSMTYIDEFSELHGKDVPVREALAGQVPSAGVGTCFSRRAVTALLADGDGIAFDVQSLTEDYDIGFRLKEKGMTEIFVRFPVVDEAKEREQRKFLQHARTSNMICVREYFPDTFSTAVRQKSRWIIGIVFQGFKTHKWTSSLTLNYFLWRDRKGAISNFVSFLAMLVMIQLLLLLAYESLWPDAWHFLSIFSGSAWLMTLLWLNFGLMVNRIVQRVIFVTGYYGLTQGLLSVLRLFWGNLINFMANWRALKQVLQHGDPRRVAWDKTTHDFPSVTGDTRSLRPLGQILLENQVITEEQLDTALRNRVEGLRLGGSMLMQGLISAEQLAQALAEQNGVAWESIDAWQIPSSLIAEMPASVALHYAVLPLRLENDELIVGSEDGIDPVSLAALTRKVGRKVRYVIVLRGQIVTGLRHWYARRRGHDPRAMLYNAVQHQWLTEQQAGEIWRQYVPHQFLFAEILTTLGHINRSAINVLLLRHERSSLPLGKFLVTEGVISQETLDRVLTIQRELQVSMQSLLLKAGLNTEQVAQLESENEGE [P0AFA5] | 4.66 ± 1.7 h | – | – | – | – | – | – | – | – | 9.6 ± 6.5 h | – | –
MERNKLARQIIDTCLEMTRLGLNQGTAGNVSVRYQDGMLITPTGIPYEKLTESHIVFIDGNGKHEEGKLPSSEWRFHMAAYQSRPDANAVVHNHAVHCTAVSILNRSIPAIHYMIAAAGGNSIPCAPYATFGTRELSEHVALALKNRKATLLQHHGLIACEVNLEKALWLAHEVEVLAQLYLTTLAITDPVPVLSDEEIAVVLEKFKTYGLRIEE [P0AB87] | – | – | – | – | – | 2.81 ± 0.01 h | 4.78 ± 0.5 h | 7.71 ± 0.3 h | – | – | – | –
MMPQSLPDTTTPKRRFRWPTGMPQLVALLLVLLVDSLVAPHFWQVVLQDGRLFGSPIDILNRAAPVALLAIGMTLVIATGGIDLSVGAVMAIAGATTAAMTVAGFSLPIVLLSALGTGILAGLWNGILVAILKIQPFVATLILMVAGRGVAQLITAGQIVTFNSPDLSWFGSGSLLFLPTPVIIAVLTLILFWLLTRKTALGMFIEAVGINIRAAKNAGVNTRIIVMLTYVLSGLCAAIAGIIVAADIRGADANNAGLWLELDAILAVVIGGGSLMGGRFNLLLSVVGALIIQGMNTGILLSGFPPEMNQVVKAVVVLCVLIVQSQRFISLIKGVRSRDKT | – | – | – | – | – | – | – | 8.92 h | – | – | – | –
MAIALVTGGSRGIGRATALLLAQEGYTVAVNYQQNLHAAQEVMNLITQAGGKAFVLQADISDENQVVAMFTAIDQHDEPLAALVNNAGILFTQCTVENLTAERINRVLSTNVTGYFLCCREAVKRMALKNGGSGGAIVNVSSVASRLGSPGEYVDYAASKGAIDTLTTGLSLEVAAQGIRVNCVRPGFIYTEMHASGGEPGRVDRVKSNIPMQRGGQAEEVAQAIVWLLSDKASYVTGSFIDLAGGK | – | 5.48 ± 0.058 h | 5.67 h | 5.69 ± 0.45 h | 4.82 h | 3.03 ± 0.14 h | 5.93 h | – | 4.66 ± 0.41 h | 8.32 ± 0.23 h | 6.41 ± 0.74 h | 11.2 ± 1.9 h
MAYFLDFDERALKEWRKLGSTVREQLKKKLVEVLESPRIEANKLRGMPDCYKIKLRSSGYRLVYQVIDEKVVVFVISVGKRERSEVYSEAVKRIL [P0C077] | 4.02 ± 0.45 h | 3.59 ± 0.8 h | 2.54 ± 0.14 h | 3.36 ± 0.24 h | 2.83 ± 0.12 h | 3 ± 0.35 h | 4.25 ± 0.73 h | 6.2 ± 0.85 h | 2.58 ± 0.06 h | 3.73 ± 0.099 h | 3.75 ± 0.74 h | 11.3 ± 0.5 h
MPEPVAEPALNGLRLNLRIVSIVMFNFASYLTIGLPLAVLPGYVHDVMGFSAFWAGLVISLQYFATLLSRPHAGRYADSLGPKKIVVFGLCGCFLSGLGYLTAGLTASLPVISLLLLCLGRVILGIGQSFAGTGSTLWGVGVVGSLHIGRVISWNGIVTYGAMAMGAPLGVVFYHWGGLQALALIIMGVALVAILLAIPRPTVKASKGKPLPFRAVLGRVWLYGMALALASAGFGVIATFITLFYDAKGWDGAAFALTLFSCAFVGTRLLFPNGINRIGGLNVAMICFSVEIIGLLLVGVATMPWMAKIGVLLAGAGFSLVFPALGVVAVKAVPQQNQGAALATYTVFMDLSLGVTGPLAGLVMSWAGVPVIYLAAAGLVAIALLLTWRLKKRPPEHVPEAASSS | – | 3.62 h | – | – | – | – | – | – | – | – | – | –
MNPVPAQREYFLDSIRAWLMLLGIPFHISLIYSSHTWHVNSAESSLWLTLFNDFIHSFRMQVFFVISGYFSYMLFLRYPLKKWWKVRVERVGIPMLTAIPLLTLPQFIMLQYVKGKAESWPGLSLYDKYNTLAWELISHLWFLLVLVVMTTLCVWIFKRIRNNLENSDKTNKKFSMVKLSVIFLCLGIGYAVIRRTIFIVYPPILSNGMFNFIVMQTLFYLPFFILGALAFIFPHLKALFTTPSRGCTLAAALAFVAYLLNQRYGSGDAWMYETESVITMVLGLWMVNVVFSFGHRLLNFQSARVTYFVNASLFIYLVHHPLTLFFGAYITPHITSNWLGFLCGLIFVVGIAIILYEIHLRIPLLKFLFSGKPVVKRENDKAPAR | > 8 h | 5.18 h | – | – | 6.23 h | – | – | – | – | 9.69 h | 7.05 h | > 16 h
